Assay results taken from patent US20240368242A1 (SHATTUCK LABS, published 2024).

B1: recombinant murine CD40 protein (receptor, UniProt P27512 24-193, looked up)
chain: VTCSDKQYLHDGQCCDLCQPGSRLTSHCTALEKTQCHPCDSGEFSAQWNREIRCHQHRHCEPNQGLRVKKEGTAESDTVCTCKEGQHCTSKDCEACAQHTPCIPGFGVMEMATETTDTVCHPCPVGFFSNQSSLFEKCYPWTSCEDKNLEVLQKGTSQTNVICGLKSRMR
notes: also called mCD40
B2: human PD-1-Fc-OX40L chimeric protein treated with the deglycosylase PNGase F (Fc fusion)
chain: LDSPDRPWNPPTFSPALLVVTEGDNATFTCSFSNTSESFVLNWYRMSPSNQTDKLAAFPEDRSQPGQDCRFRVTQLPNGRDFHMSVVRARRNDSGTYLCGAISLAPKAQIKESLRAELRVTERRAEVPTAHPSPSPRPAGQFQSKYGPPCPSCPAPEFLGGPSVFLFPPKPKDTLMISRTPEVTCVVVDVSQEDPEVQFNWYVDGVEVHNAKTKPREEQFNSTYRVVSVLTVLHQDWLSGKEYKCKVSSKGLPSSIEKTISNATGQPREPQVYTLPPSQEEMTKNQVSLTCLVKGFYPSDIAVEWESNGQPENNYKTTPPVLDSDGSFFLYSRLTVDKSSWQEGNVFSCSVMHEALHNHYTQKSLSLSLGKIEGRMDQVSHRYPRIQSIKVQFTEYKKEKGFILTSQKEDEIMKVQNNSVIINCDGFYLISLKGYFSQEVNISLHYQKDEEPLFQLKKVRSVNSLMVASLTYKDKVYLNVTTDNTSLDDFHVNGGELILIHQNPGEFCVL
modifications: N-glycans removed with PNGase F
notes: also called deglycosylated hPD-1-Fc-OX40L
B3: human PD-1-Fc-OX40L chimeric protein (Fc fusion)
chain: B2 chain
notes: Glycosylated; also called hPD-1-Fc-OX40L
B4: murine CD172a(SIRPα)-Fc-CD40L chimeric protein (Fc fusion)
chain 1: KELKVTQPEKSVSVAAGDSTVLNCTLTSLLPVGPIRWYRGVGPSRLLIYSFAGEYVPRIRNVSDTTKRNNMDFSIRISNVTPADAGIYYCVKFQKGSSEPDTEIQSGGGTEVYVLAKPSPPEVSGPADRGIPDQKVNFTCKSHGFSPRNITLKWFKDGQELHPLETTVNPSGKNVSYNISSTVRVVLNSMDVNSKVICEVAHITLDRSPLRGIANLSNFIRVSPTVKVTQQSPTSMNQVNLTCRAERFYPEDLQLIWLENGNVSRNDTPKNLTKNTDGTYNYTSLFLVNSSAHREDVVFTCQVKHDQQPAITRNHTVLGFAHSSDQGSMQTFPDNNATHNWN
chain 2: HRRLDKVEEEVNLHEDFVFIKKLKRCNKGEGSLSLLNCEEMRRQFEDLVKDITLNKEEKKENSFEMQRGDEDPQIAAHVVSEANSNAASVLQWAKKGYYTMKSNLVMLENGKQLTVKREGLYYVYTQVTFCSNREPSSQRPFIVGLWLKPSSGSERILLKAANTHSSSQLCEQQSVHLGGVFELQAGASVFVNVTEASQVIHRVGFSSFGLLKL
B5: murine PD-1-Fc-OX40L chimeric protein (Fc fusion)
chain 1: LEVPNGPWRSLTFYPAWLTVSEGANATFTCSLSNWSEDLMLNWNRLSPSNQTEKQAAFCNGLSQPVQDARFQIIQLPNRHDFHMNILDTRRNDSGIYLCGAISLHPKAKIEESPGAELVVTERILETSTRYPSPSPKPEGRFQGM
chain 2: SSSPAKDPPIQRLRGAVTRCEDGQLFISSYKNEYQTMEVQNNSVVIKCDGLYIIYLKGSFFQEVKIDLHFREDHNPISIPMLNDGRRIVFTVVASLAFKDKVYLTVNAPDTLCEHLQINDGELIVVQLTPGYCAPEGSYHSTVNQVPL
B6: recombinant human OX40L-Fc (Fc fusion, UniProt P23510 51-183, looked up)
chain: QVSHRYPRIQSIKVQFTEYKKEKGFILTSQKEDEIMKVQNNSVIINCDGFYLISLKGYFSQEVNISLHYQKDEEPLFQLKKVRSVNSLMVASLTYKDKVYLNVTTDNTSLDDFHVNGGELILIHQNPGEFCVL
notes: Positive control in SPR; not shown: Fc not described

How the values were obtained:
[1] = target: B4; assay: SPR, binding to mCD40
[2] = target: T1, human OX40 expressed on Jurkat cells (Jurkat/hOX40) (human, UniProt P43489 29-277); assay: flow cytometry on Jurkat-hOX40 cells; Jurkat cells without hOX40 as control
T1 construct: whole, on cells
T1 sequence (looked up): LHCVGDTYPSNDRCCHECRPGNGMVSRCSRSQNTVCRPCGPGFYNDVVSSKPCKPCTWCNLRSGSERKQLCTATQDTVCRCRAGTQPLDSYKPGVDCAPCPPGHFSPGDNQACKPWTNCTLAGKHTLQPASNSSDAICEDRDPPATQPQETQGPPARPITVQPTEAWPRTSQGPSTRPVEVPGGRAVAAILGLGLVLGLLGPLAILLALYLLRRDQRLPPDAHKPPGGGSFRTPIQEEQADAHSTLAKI

[3] = target: T2, OX40 receptor used in the functional ELISA of Example 12 (human, UniProt P43489 29-216); assay: functional ELISA on human OX40; x axis is dilution (1 to 16), concentration not given
T2 construct: also called hOX40
T2 sequence (looked up): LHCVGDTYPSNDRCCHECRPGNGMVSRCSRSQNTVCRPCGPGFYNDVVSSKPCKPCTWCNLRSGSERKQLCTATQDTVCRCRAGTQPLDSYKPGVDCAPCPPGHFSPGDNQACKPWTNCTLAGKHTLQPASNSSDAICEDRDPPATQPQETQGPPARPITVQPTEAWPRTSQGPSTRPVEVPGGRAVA

[4] = target: plate-bound recombinant human PD-L1 protein (human, UniProt Q9NZQ7 19-238, limits assumed); assay: functional ELISA on human PD-L1; x axis is dilution (1 to 16), concentration not given
TNFRSF4 = target: T3, TNFRSF4; assay: microarray containing about 6,000 human membrane proteins
T3 construct: also called TNF Receptor Superfamily Member 4; canonical isoform
T3 chain: T1 sequence (looked up)

Galectin-1 = Galectin-1 (human, UniProt P09382 2-135, limits assumed); assay: as above
[5] = target: T4, murine CD40 expressed on CHOK1 cells (CHOK1/mCD40) (murine, UniProt P27512 20-289); assay: flow cytometry on CHOK1/mCD40 cells
T4 construct: whole, on cells

FcRn-His (Example 11) = target: T5, FcRn-His (Example 11); assay: SPR (BioRad ProteOn XPR 360), His-tagged target chip-bound
T5 construct: A beta-2-microglobulin chain is not mentioned

[6] = target: T6, recombinant human OX40-His protein (human, UniProt P43489 29-216); assay: SPR, His-tagged target on ProteOn HTG tris-NTA chip, positive control
T6 construct: also called polyhistidine-tagged recombinant human OX40; hOX40; not shown: polyhistidine tag
T6 sequence (looked up): T2 sequence (looked up)
Excerpt: Specifically, polyhistidine-tagged versions of recombinant human PD-L1, PD-L2, or OX40 was bound to ProteOn HTG tris-NTA chips (BIORAD).

[7] = target: T2, OX40 receptor used in the functional …; assay: ELISA, plate-bound OX40, detection with αOX40L and HRP detection antibody; fold dilution series

T5 sequence (Q61559 22-297, chain 1 of 2): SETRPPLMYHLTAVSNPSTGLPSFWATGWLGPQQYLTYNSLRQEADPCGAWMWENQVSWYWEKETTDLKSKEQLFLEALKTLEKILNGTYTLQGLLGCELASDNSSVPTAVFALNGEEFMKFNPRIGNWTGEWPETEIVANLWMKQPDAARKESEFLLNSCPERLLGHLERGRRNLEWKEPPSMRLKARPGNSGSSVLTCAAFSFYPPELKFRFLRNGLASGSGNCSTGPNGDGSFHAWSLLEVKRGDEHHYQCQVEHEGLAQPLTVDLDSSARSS
T5 sequence (P01887 21-119, chain 2 of 2, further chain): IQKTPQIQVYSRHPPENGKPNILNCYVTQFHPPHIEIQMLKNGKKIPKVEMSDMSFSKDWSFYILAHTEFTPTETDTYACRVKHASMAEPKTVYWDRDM
T4 sequence (P27512 20-289): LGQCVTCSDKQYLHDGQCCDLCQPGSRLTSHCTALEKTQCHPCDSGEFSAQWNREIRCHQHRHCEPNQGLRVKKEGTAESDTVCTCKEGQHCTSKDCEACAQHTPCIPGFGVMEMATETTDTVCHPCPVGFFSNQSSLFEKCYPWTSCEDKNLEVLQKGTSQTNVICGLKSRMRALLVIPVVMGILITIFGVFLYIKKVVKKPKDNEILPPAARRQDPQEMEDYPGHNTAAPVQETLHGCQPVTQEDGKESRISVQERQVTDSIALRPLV
Galectin-1, sequence (P09382 2-135 limits assumed): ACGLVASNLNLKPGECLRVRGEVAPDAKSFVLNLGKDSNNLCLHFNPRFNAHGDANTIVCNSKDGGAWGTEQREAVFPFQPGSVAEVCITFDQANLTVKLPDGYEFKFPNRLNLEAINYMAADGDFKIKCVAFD
plate-bound recombinant human PD-L1 protein, sequence (Q9NZQ7 19-238 limits assumed): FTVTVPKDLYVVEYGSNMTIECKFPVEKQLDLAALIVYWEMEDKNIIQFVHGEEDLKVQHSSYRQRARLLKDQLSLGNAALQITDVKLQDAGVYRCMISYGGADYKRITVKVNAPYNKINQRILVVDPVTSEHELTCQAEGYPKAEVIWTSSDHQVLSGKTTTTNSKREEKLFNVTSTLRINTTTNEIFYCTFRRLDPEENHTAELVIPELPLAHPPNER

Question: Which results are given for B1?
Answer: koff [1]: 5.51e-05 s⁻¹; kon [1]: 72800 M⁻¹ s⁻¹

Question: What does the source list for B2?
Answer: binding result [2]: binds; binding result [3]: binds; binding result [4]: binds

Question: Does B3 bind (TNFRSF4)?
Answer: binds

Question: Does B3 bind (Galectin-1)?
Answer: binds

Question: For B4, which EC50 [5] is on record?
Answer: 0.0202 µM

Question: For B5, which Kd (FcRn-His (Example 11)) is on record?
Answer: 0.0556 µM

Question: And the koff (FcRn-His (Example 11))?
Answer: 0.00262 s⁻¹

Question: And the kon (FcRn-His (Example 11))?
Answer: 47200 M⁻¹ s⁻¹

Question: Does B6 bind [6]?
Answer: binds

Question: Does B6 bind [7]?
Answer: binds
